This note sets out measurements from US20260071182A1 (GAIA BIOMEDICINE, published 2026).

Assay in all cases: BLI (Octet RED96), target on sensor, monobody in five 2-fold dilutions
Experiment [1] has as its target T1, Biotinylated Human NKp46/NCR/CD335 Protein, Fc, Avitag (NC1-H82F9) (human, UniProt O76036 22-255, biotinylated (Avitag)).
T1 construct: Bought from ACROBiosystems, catalog NC1-H82F9; not shown: Fc and Avitag of the purchased protein
How it is done:
(§1) The binding abilities and specificities were examined by using an Octet® RED96 (ForteBio) with bio-layer interferometry. Measurement was performed with the following program: Dip for 50 seconds, Load for x seconds (until a signal of 1.0 nm (NKp46, 2B4) or 0.8 nm (Nkp30) was reached), Baseline for 60 seconds, Association for 600 seconds, and Dissociation for 600 seconds. At that time, the monobody concentrations were equally set to 40 nM. The acquired data were analyzed with ForteBio Data Analysis 10.0. Only samples for which binding ability and specificity were found were subjected to measurement of dissociation constants under different conditions. The measurement conditions are shown in a table given below. Dip, Baseline, Association, and Dissociation were performed for the same times as in examining binding ability and specificity. The monobodies were serially diluted from the highest concentration by a factor of 2 to prepare five concentrations for use in measurement.
(§2) The binding abilities and specificities of all the clones expressed and purified in Example 3 were examined, and the values of dissociation constants were measured. FIGS. 5 to 7 show the measurement results. In the top graphs in each of FIGS. 5 to 7, upper lines show results of measurement of the binding abilities of the monobodies with binding of a target to the tip of the sensor, and lower lines show results of examination on whether a monobody was bound only to the sensor without binding of a target to the sensor. Mb in the graphs is an abbreviation for monobody concentration. For any of the clones, the monobody was bound to the sensor when a target was fixed on the sensor, and no binding was found when a target was not fixed on the sensor. The bottom graphs in each of FIGS. 5 to 7 show results of measurement of dissociation constants for five concentrations.

Experiment [2] has as its target T2, Human NKp30/NCR3/CD337 Protein, Fc Tag (NC3-H5259) (human, UniProt O14931 19-135).
T2 construct: Bought from ACROBiosystems, catalog NC3-H5259; not shown: Fc tag of the purchased protein
T2 sequence (looked up): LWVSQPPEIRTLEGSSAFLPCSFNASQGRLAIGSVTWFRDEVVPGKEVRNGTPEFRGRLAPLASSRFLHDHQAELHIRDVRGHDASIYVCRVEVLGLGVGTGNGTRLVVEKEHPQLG
Here is the method: as §1, §2

The target of experiment [3] is T3, Biotinylated Human 2B4/CD244/SLAMF4 Protein, Fc, Avitag (2B4-H82F0) (human) (UniProt Q9BZW8).
T3 sequence (biotinylated (Avitag), looked up): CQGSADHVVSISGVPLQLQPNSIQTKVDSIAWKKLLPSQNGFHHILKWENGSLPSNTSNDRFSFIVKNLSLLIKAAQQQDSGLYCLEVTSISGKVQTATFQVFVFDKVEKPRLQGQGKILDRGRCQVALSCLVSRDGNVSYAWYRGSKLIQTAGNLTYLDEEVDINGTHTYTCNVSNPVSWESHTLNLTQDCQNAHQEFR

The target of experiment [4] is T4, Biotinylated Human 2B4/CD244/SLAMF4 Protein, Fc, Avitag (2B4-H82F0) (human, UniProt Q9BZW8-2 22-221, biotinylated (Avitag)).
T4 construct: Bought from ACROBiosystems, catalog 2B4-H82F0; not shown: Fc and Avitag of the purchased protein
T4 sequence (looked up): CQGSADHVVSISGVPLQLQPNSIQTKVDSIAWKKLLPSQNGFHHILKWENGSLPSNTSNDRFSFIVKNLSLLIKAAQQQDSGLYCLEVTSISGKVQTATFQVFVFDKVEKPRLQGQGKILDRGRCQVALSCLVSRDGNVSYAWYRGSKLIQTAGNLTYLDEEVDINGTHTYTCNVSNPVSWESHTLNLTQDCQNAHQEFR
How it is done:
as §1, §2

T1 sequence (O76036 22-255): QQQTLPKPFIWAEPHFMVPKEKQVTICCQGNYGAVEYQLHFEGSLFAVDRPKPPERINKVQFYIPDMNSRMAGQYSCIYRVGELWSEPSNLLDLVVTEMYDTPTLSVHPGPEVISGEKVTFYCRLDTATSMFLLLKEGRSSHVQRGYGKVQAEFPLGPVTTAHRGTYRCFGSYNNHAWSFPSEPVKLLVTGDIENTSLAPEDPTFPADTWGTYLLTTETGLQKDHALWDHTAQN

B1: Mb-NKp46-BC-2 (designed binder)
chain: LEVVEASPTSIQISWDAWTWLGYEYYWVRYYRITYGETGGNSPVQEFTVPGSKSTATISGLKPGVDYTITVYAVTWDSKPGAIGIPISINYRTEIDKPSQ
notes: Monobody on human fibronectin type III domain scaffold, BC-FG library; also called NKp46 BC-FG No. 2; not shown: N-terminal residues of the expression construct (X7n7; the library has MPNR), linker, Sortase A recognition site and His tag
Broadly, the Kd is the equilibrium constant for the complex coming apart. Usually koff stands for the rate constant with which the complex falls apart. Low values mean a long-lived complex, high ones a short-lived complex. The term kon denotes the rate constant with which the complex forms. A high value points to fast association. Turning to B1, in experiment [1], the affinity, expressed as Kd, was 1.2 nM; the koff was determined as 0.00047 s⁻¹; the kon turned out to be 380000 M⁻¹ s⁻¹.

B2: Mb-NKp30-BC-6 (designed binder)
chain: LEVVEASPTSIQISWDATDRNYDITYGMQVRYYRITYGETGGNSPVQEFTVPGSKSTATISGLKPGVDYTITVYAVTYWWDGYSYSEEAWYYPISINYRTEIDKPSQ
notes: Monobody on human fibronectin type III domain scaffold, BC-FG library; also called NKp30 BC-FG No. 6; not shown: N-terminal residues of the expression construct (X7n7; the library has MPNR), linker, Sortase A recognition site and His tag
With B2, in experiment [2], the Kd came to 0.27 nM, the koff came to 0.00024 s⁻¹ and the kon came out at 900000 M⁻¹ s⁻¹.

B3: Mb-2B4-BC-2 (designed binder, part only; not given: N-terminal start, linker, sortase site, tag, not shown: small tags and cut ends)
chain, part: LEVVEASPTSIQISWDAQAYWFEYTWWVRYYRITYGETGGNSPVQEFTVPGSKSTATISGLKPGVDYTITVYAVTLEWVYDDQWTSGPISINYRTEIDKPSQ
In experiment [3], B3 registered a Kd of 1 nM, a koff of 9.3e-05 s⁻¹ and a kon of 92000 M⁻¹ s⁻¹.

B4: Mb-NKp46-CD-1 (designed binder)
chain: LEVVEASPTSIQISWDAPAVTVRYYDIYYGETGPGYYMWQRGVINVQAFTVPGSKSTATISGLKPGVDYTITVYAVTGQERAYGHPEHFPISINYRTEIDKPSQ
notes: Monobody on human fibronectin type III domain scaffold, CD-FG library; also called NKp46 CD-FG No. 1; not shown: N-terminal residues of the expression construct (X7n7; the library has MPNR), linker, Sortase A recognition site and His tag
In experiment [1], B4 gave a Kd of 0.14 nM, a koff of 7.2e-05 s⁻¹ and a kon of 530000 M⁻¹ s⁻¹.

B5: Mb-2B4-CD-3 (designed binder)
chain: LEVVEASPTSIQISWDAPAVTVRYYEILYGETGTPPWIHKGWVQYFTVPGSKSTATISGLKPGVDYTITVYAVTVTPYGRKWVGMNGWPISINYRTEIDKPSQ
notes: Monobody on human fibronectin type III domain scaffold, CD-FG library; also called 2B4 CD-FG No. 3; not shown: Sortase A recognition site, His tag and any linker (X8n8) at the C terminus; MPNR in the library
On to B5, for which, in experiment [4], the Kd amounted to 1.5 nM, the off-rate (koff) was found to be 0.00035 s⁻¹ and the kon is 230000 M⁻¹ s⁻¹.

B6: Mb-NKp46-BC-3 (designed binder)
chain: LEVVEASPTSIQISWDATYWDWGFRVRYYRITYGETGGNSPVQEFTVPGSKSTATISGLKPGVDYTITVYAVTWSWARRTHISWFPISINYRTEIDKPSQ
notes: Monobody on human fibronectin type III domain scaffold, BC-FG library; also called NKp46 BC-FG No. 3; not shown: N-terminal residues of the expression construct (X7n7; the library has MPNR), linker, Sortase A recognition site and His tag
As to B6, in experiment [1], the Kd is below 0.01 nM, the koff is below 1e-06 s⁻¹ and the kon stood at 100000 M⁻¹ s⁻¹.

B7: Mb-2B4-CD-1 (designed binder)
chain: LEVVEASPTSIQISWDAPAVTVRYYGIYYGETGTSPWVYNGYVQEFTVPGSKSTATISGLKPGVDYTITVYAVTDQYKSWNLEEFHPISINYRTEIDKPSQ
notes: Monobody on human fibronectin type III domain scaffold, CD-FG library; also called 2B4 CD-FG No. 1; not shown: Sortase A recognition site, His tag and any linker (X8n8) at the C terminus; MPNR in the library
Turning to B7, in experiment [4], the affinity, expressed as Kd, was 2.8 nM; the koff was determined as 0.0002 s⁻¹; the kon was found to be 71000 M⁻¹ s⁻¹.

B8: Mb-NKp30-CD-9 (designed binder)
chain: LEVVEASPTSIQISWDAPAVTVRYYVITYGETGWSWESYWHGTYVQQFTVPGSKSTATISGLKPGVDYTITVYAVTTFMKDIPSYYPISINYRTEIDKPSQ
notes: Monobody on human fibronectin type III domain scaffold, CD-FG library; also called NKp30 CD-FG No. 9; not shown: N-terminal residues of the expression construct (X7n7; the library has MPNR), linker, Sortase A recognition site and His tag
In experiment [2], B8 gave a Kd of 0.35 nM, a koff of 0.00029 s⁻¹ and a kon of 810000 M⁻¹ s⁻¹.

B9: Mb-NKp30-BC-2 (designed binder)
chain: LEVVEASPTSIQISWDALWHYYGDQYWVRYYRITYGETGGNSPVQEFTVPGSKSTATISGLKPGVDYTITVYAVTWMYVPEYYFNPWPISINYRTEIDKPSQ
notes: Monobody on human fibronectin type III domain scaffold, BC-FG library; also called NKp30 BC-FG No. 2; not shown: N-terminal residues of the expression construct (X7n7; the library has MPNR), linker, Sortase A recognition site and His tag
On to B9, for which, in experiment [2], the affinity, expressed as Kd, was 0.038 nM; the koff amounted to 2.7e-05 s⁻¹; the kon is 720000 M⁻¹ s⁻¹.

B10: Mb-NKp46-CD-3 (designed binder)
chain: LEVVEASPTSIQISWDAPAVTVRYYVISYGETGRYKYHRRINVQGFTVPGSKSTATISGLKPGVDYTITVYAVTGTQWYVFNEAGDVAGYPISINYRTEIDKPSQ
notes: Monobody on human fibronectin type III domain scaffold, CD-FG library; also called NKp46 CD-FG No. 3; not shown: N-terminal residues of the expression construct (X7n7; the library has MPNR), linker, Sortase A recognition site and His tag
As for B10, in experiment [1], the affinity, expressed as Kd, was 0.98 nM; the koff is 7e-05 s⁻¹; the kon is 72000 M⁻¹ s⁻¹.
